Test results taken from paper PMC12710124, “Pleomorphism in Wild-Type and Engineered PP7 Virus-Like Particles” (Small (Weinheim an der Bergstrasse, Germany), 2025).
“And” between values parts separate entries of the source, which are not always exact repeats. Equal values may be shown once. Read-outs that look alike come from different tables or passages of the source.

B1: PP7 coat protein (wild-type, monomeric) (natural protein)
chain: MSKTIVLSVGEATRTLTEIQSTADRQIFEEKVGPLVGRLRLTASLRQNGAKTAYRVNLKLDQADVVDCSTSVCGELPKVRYTQVWSHDVTIVANSTEASRKSLYDLTKSLVATSQVEDLVVNLVPLGR
notes: Self-assembles in the expression host into VLPs; also called PP7 CP; PP7 capsid protein; source: bacterial expression host (E. coli), recombinantly expressed, purified as VLPs

How the values were obtained:
Assay in all cases: cryo-EM structure; 3D reconstruction of purified VLPs self-assembled in the bacterial expression host; closed cages (T = 3, T = 4, D5, D5E, C2, C3) and tubes
[1] = target: PP7-AY-PP7, PP7 coat protein dimer with AY linker (Pseudomonas phage PP7)
[2] = target: PP7-AY-PP7, PP7 coat protein dimer with AY linker (Pseudomonas phage PP7); remark: listed apart in the source
[3] = target: the molecule itself

| Molecule | stoichiometry N [1] [copies] | stoichiometry N [2] [copies] | stoichiometry N [3] |
| --- | --- | --- | --- |
| PP7-AY-PP7, PP7 coat protein dimer with AY linker | 102 | 87 |  |
| B1 |  |  | 150 coat proteins and 174 copies and 204 copies |
